± gives the standard deviation.
Assay: protein stability index of a GFP-peptide fusion (GPS, HEK-293T) (PSI 1-6); higher = more stable
[1] = treatment: DMSO, c terminus: a fixed tail appended
[2] = treatment: MLN4924 1 uM, 8 h, c terminus: a fixed tail appended
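Further: 24-mer peptide tiles fused after GFP, lentivirally expressed, FACS-sorted into six equal bins by GFP/DsRed ratio, decoded by Illumina sequencing, PSI is the read-weighted mean bin number.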

Sequence	protein stability index [1]	protein stability index [2]	protein stability index (treatment: DMSO, c terminus: native)	protein stability index (treatment: MLN4924 1 uM, 8 h, c terminus: native)
GTVVALLNVHDLDSEQNGQVTCSI [PCDHGA10]	2.23 ± 0.34	2.58 ± 0.24	–	–
QLQVTEREEVRGRELTGLKALYET [LMNB1]	3.68 ± 0.18	3.98 ± 0.38	–	–
TEDIQTRQYRSIEVLIGAGYSTPA [SRPK2]	2.94 ± 0.4	2.87 ± 0.5	–	–
EISALNGNRINVPMVRKRSVSNST [DLC1]	3.5 ± 0.071	3.5 ± 0.32	–	–
LKYFSDFRPYFTIHDSEFKEYTTR [DENND6A]	2.19 ± 0.32	2.3 ± 0.2	–	–
GATWRTSGLLEELNAEAGHLDPGF [C18orf25]	3.98 ± 0.43	3.75 ± 0.52	–	–
YMHVGSCQHLSSSAEELRKARSNS [KCNA3]	3.95 ± 0.11	4.37 ± 0.22	–	–
LILESQNWRYATGGWETVFRPVSE [FUT8]	2.42 ± 0.22	2.29 ± 0.11	–	–
PAFKSMEVANFYYEADCLAAAYGG [CEBPB]	2.83 ± 0.25	2.96 ± 0.13	–	–
YNPSFEDHQTLLSAAHEVELQRQK [NOP53]	4.19 ± 0.56	4.35 ± 0.44	–	–
CKLQEQLEATVKKLEESKQLLKNN [SASS6]	3.7 ± 0.15	3.47 ± 0.26	–	–
SFLEQIMAPLQPSTSRAHKLPSRR [FAM189A2]	2.8 ± 0.4	3.1 ± 0.3	–	–
LLKAGAEVNVLNDMRDTPLHRAAF [OSBPL1A]	3.12 ± 0.24	3 ± 0.17	–	–
YQIYDVSGESNSAVSTEDLKECLK [LARP4]	4.2 ± 0.18	4.2 ± 0.19	–	–
DVALALAALDGGRSLEELTRLAFE [LPCAT4]	2.06 ± 0.68	2.12 ± 0.19	–	–
APDRLRASASCSHWRECLFYPALW [FBXO33]	2.33 ± 0.43	2.28 ± 0.26	–	–
ILGRTFFIYDCDPFTRRYYKEKFG [EFHC1]	2.52 ± 0.63	2.24 ± 0.63	–	–
QRHRDILQVIYWARDVFIITGVWV [GOSR1]	2.72 ± 0.72	2.25 ± 0.73	–	–
IFLGFSSLARLQQLLFVIFLLLYL [OR10K2]	2.65 ± 0.58	2.31 ± 0.52	–	–
FPACRVSVTGLDPEARYLFLLDVI [TBX6]	2.56 ± 0.53	2.09 ± 0.24	–	–
VGSALHRESFTSRQKTSGPSVIQE [C10orf62]	4.18 ± 0.15	4.46 ± 0.2	–	–
LPGSDVSGRLMGSPPVPGPSAALT [FBXO28]	4.42 ± 0.16	4.6 ± 0.33	–	–

Sequence	protein stability index [1]	protein stability index [2]	protein stability index (treatment: DMSO, c terminus: native)	protein stability index (treatment: MLN4924 1 uM, 8 h, c terminus: native)
TEPWGGTAIRPLKILPWSPEKIGT [PNLIPRP1]	3.45 ± 0.26	3.65 ± 0.36	–	–
ELKPEDKDPRDPEESKEPKEEKQR [GNAS]	5.22 ± 0.48	5.7 ± 0.3	–	–
QMAKKAEAFQLYQEAAQLDMLLEK [FLOT1]	2.73 ± 0.36	3.21 ± 0.64	–	–
PVDAEALELHDYHDIIKHPMDLST [BRD3]	4.63 ± 0.34	4.67 ± 0.32	–	–
SEIRCDLERQNQEYQVLLDVKARL [KRT36]	3.38 ± 0.19	3.34 ± 0.2	–	–
LNIVPRTKVVYLASETFNYSAIDR [PI4K2A]	2.28 ± 0.18	2.07 ± 0.2	–	–
PQQGFFSSFFTCNQKCQLRLLKTL [ATP23]	2.36 ± 0.4	2.13 ± 0.3	–	–
SGSGFGSVSWWGLSPALDLQAESP [DNAAF3]	2.69 ± 0.56	2.43 ± 0.097	–	–
MASDHREALLDRESENASLREKLR [LRRC45]	5.15 ± 0.093	4.95 ± 0.16	–	–
GHPFFEGVDWEHIRERPAAIPIEI [STK38L]	2.46 ± 0.39	2.84 ± 0.38	–	–
FTYDPWIGKLLYLEDFFVMSDYRG [SAT1]	2.88 ± 0.51	2.79 ± 0.76	–	–
TSEVDKRRTRPRHHHGRSRPDRSS [CHGB]	5.07 ± 0.37	5.06 ± 0.31	–	–
PNVYPAAPQGGMAALNMSLGMVTP [ADD1]	3.26 ± 0.28	3.25 ± 0.21	–	–
HQKLEREARICRLLKHPNIVRLHD [CAMK2D]	2.51 ± 0.22	2.9 ± 0.46	–	–
ETFLSFLEYLYTDSCCPAGIFQAM [RHOBTB3]	2.96 ± 0.48	2.56 ± 0.35	–	–
MENKKKDKDKSDDRMARPSGRSGH [CSNK1G3]	5.42 ± 0.34	5.31 ± 0.44	–	–
TSRNLIGGADIIVIKYNVNDKFSF [RHOBTB3]	2.83 ± 1.2	2.68 ± 1.6	–	–
CTGTEAHISSCKLGPQVSLDPMKN [LOXL2]	3.5 ± 0.29	3.81 ± 0.11	–	–
EDPSQQFLQQSLERVYSLQHLDPQ [INTS4]	4.18 ± 0.17	4.42 ± 0.23	–	–
VYGVSKETFLSFLEYLYTDSCCPA [RHOBTB3]	2.16 ± 0.41	2.1 ± 0.24	–	–
SRPQSSRPVLLSKIEGHQDAVTAA [WDFY1]	4.28 ± 0.33	4.3 ± 0.35	–	–
CHKYDRNIQVTGSAALFYLTNSEY [ZER1]	2.28 ± 0.34	1.97 ± 0.23	–	–

Sequence	protein stability index [1]	protein stability index [2]	protein stability index (treatment: DMSO, c terminus: native)	protein stability index (treatment: MLN4924 1 uM, 8 h, c terminus: native)
SRRSGKTSAVLKAGRQSVSGRKNS [C6orf223]	4.64 ± 0.28	4.78 ± 0.25	–	–
GRQPALRPHVHKQTEKTTRVRTVL [ISL2]	3.66 ± 0.1	3.88 ± 0.17	–	–
LDVWLSGGNDLCVWNRKLDLLCKT [WDR41]	2.28 ± 0.35	2.19 ± 0.31	–	–
QIKALNNKFASFIDKVRFLEQQNQ [KRT71]	2.38 ± 0.1	2.59 ± 0.4	–	–
LGFRAFSGSGNRLDGKKKGVEPSP [UFD1]	4.25 ± 0.46	3.94 ± 0.29	–	–
DQFLEDVRLQERTSGGLLSEAPNE [NOP53]	5.23 ± 0.13	5.38 ± 0.31	–	–
GCDRIIGSKKKFDKCMVCGGDGSG [ADAMTS4]	3.21 ± 0.34	4.053 ± 0.022	–	–
DHFQKFLPTVGGQLGTAGQGFSYS [MYOZ1]	2.81 ± 0.13	2.79 ± 0.27	–	–
IGREGAKDSYDFFTEIKTITVKH [ALDH8A1]	–	–	2.35 ± 0.43	2.42 ± 0.25
GPARSGFRLETLAGLRSRRLKQPK [MIR22HG]	3.87 ± 0.24	4.14 ± 0.13	–	–
VILKNSQGEEVAQRSTVFKTTIPE [LMNB1]	2.67 ± 0.34	2.84 ± 0.24	–	–
ETVGGAILDQTTSEDAVGGATLGQ [HDAC6]	5.29 ± 0.25	5.62 ± 0.25	–	–
ALRPTAFSGCLNCSKVSELTERLK [EMID1]	2.74 ± 0.37	2.97 ± 0.47	–	–
PQVRDWSHYFKIIEDLRAQIFANT [KRT18]	2.52 ± 0.36	2.64 ± 0.46	–	–
CRKWNQMMYSAELWRYRTITFSGR [FBXO39]	2.41 ± 0.28	2.15 ± 0.37	–	–
SQGNFEGNFESLDLAEFAKKQPWW [FUNDC2]	3.63 ± 0.27	3.63 ± 0.46	–	–
DTLDHIRALDRLQEVPHEGPMCDL [PPP2CA]	4.76 ± 0.24	4.8 ± 0.066	–	–
ESNVSMASLGEKRDHHSTHYRASE [CHGB]	4.71 ± 0.27	4.79 ± 0.33	–	–
ELVLRKDCPKIVEPHGKMFNEQTW [ZSCAN9]	2.86 ± 0.38	2.78 ± 0.3	–	–
LAGSESLPVETLGPASRMDPESER [PBXIP1]	5.2 ± 0.18	5.21 ± 0.21	–	–
QFILERGEYPRWDAWSGSNAYHIE [CRYBA1]	2.31 ± 0.17	2.19 ± 0.18	–	–
TVPEILVHNIVIFMRTSVKISYIG [TMEM106C]	3.01 ± 0.38	3.11 ± 0.29	–	–

Sequence	protein stability index [1]	protein stability index [2]	protein stability index (treatment: DMSO, c terminus: native)	protein stability index (treatment: MLN4924 1 uM, 8 h, c terminus: native)
FSFKVSRWMGLACFRSLAASSPSI [CCDC70]	2.2 ± 0.34	2.63 ± 0.53	–	–
ILRFIYSGAFQWEELEEDIRKKLK [RHOBTB3]	2.25 ± 0.27	2.48 ± 0.53	–	–
KWMERYLRDKTVMIIVAISPKYKQ [TRAF3IP2]	2.65 ± 0.97	2.44 ± 0.34	–	–
TKKGDLQWNAGEKKLTGGANWQPK [SNAP91]	4.07 ± 0.13	4.26 ± 0.23	–	–
ESLDYDRCINDPYLEVLETMDNKK [CLCN6]	5.21 ± 0.25	5.29 ± 0.37	–	–
RAGVQWKFAGSFYFAITVITTIGY [KCNK9]	3.03 ± 0.064	3.11 ± 0.4	–	–
FSIGLGPMPWLVLSEIFPGGIRGR [SLC2A12]	2.29 ± 0.67	2.51 ± 0.5	–	–
SKIDALSSEKLNLQKDLETRPTQH [CEP70]	4.71 ± 0.29	4.71 ± 0.073	–	–
KLIQKKLLDKTCDQVMEFSWSALW [ZER1]	2.41 ± 0.41	2.35 ± 0.2	–	–
SKSLMTSVPMNGTSIQWKNHDQNN [EDNRA]	4.25 ± 0.045	4.41 ± 0.18	–	–
FFWHLTLPERRGTCADRDNLTRRF [CASP6]	2.61 ± 0.36	2.09 ± 0.18	–	–
QQQEPPLAMGTVSLGQLPLPPIPH [PLAGL1]	4.33 ± 0.14	4.35 ± 0.15	–	–
QSFGRLSLQPQQQQQRQRPPRPPP [N4BP2L1]	4.64 ± 0.2	4.6 ± 0.32	–	–
DRLRRNWPPSFLSEFRALQFSLML [SPNS1]	2.65 ± 0.6	2.31 ± 0.51	–	–
CRVPNSGKDEIEAAVKAAREAFPS [ALDH8A1]	4.65 ± 0.27	4.54 ± 0.36	–	–
FASGGFQVKLYDIEQQQIRNALEN [CRYL1]	2.56 ± 0.28	2.95 ± 0.83	–	–
PLPAGVPPLEDFEVLDGVEDAEGE [FKBP8]	5.64 ± 0.26	5.44 ± 0.46	–	–
GAAESPYAYSNGIDYKTTTILLDG [RAB40C]	3.7 ± 0.39	3.67 ± 0.39	–	–
NYEKEEEFLTNELSRKLMQLQHEK [CCDC6]	4.43 ± 0.15	4.55 ± 0.38	–	–
DVVRSLLRRGASVNRTTRTNSTPL [FEM1A]	2.75 ± 0.29	2.65 ± 0.27	–	–
TFFCTNATIHGAIRLVCSRGNRLK [SCNN1D]	2.54 ± 0.27	2.41 ± 0.41	–	–
GAILTTMLATRNFSGGKSGGNKKS [CAMK2A]	3.67 ± 0.24	3.63 ± 0.41	–	–

Source: the supplement of paper PMC10567573
